Tests used:
[1] = target: T1, hGal1-induced hemagglutination of red blood cells (Homo sapiens, UniProt P09382); assay: Hemagglutination inhibition assay, native hGal1; type: cell-based; settings: native Gal1 5 μM
T1 construct: 42; made in house; host or cells: E. coli strain M-15
Experimental: Hemagglutination Inhibition Assay
(§1) Hemagglutination assay was adopted to assess the capacity of SEQ ID NO.: 4 in inhibiting the lectin cross-linking aggregation of red blood cells (RBC), as previously described. Briefly, using a 96-well microplates appropriate amounts of 5 μM hGal1 were blended with 50 μL of aptamer in an increasing concentrations manner (0-40 μM) in PBS 1× buffer (pH 7.4). Following, 50 μL of 3% purified type B+ RBC in PBS. After 2 h of room temperature incubation, the plate was photographed and the hemagglutination area was estimated by area calculator Sketchandcalc™ and the results were expressed as relative agglutination.

[2] = system: NHF human foreskin skin fibroblasts; assay: in vitro
Source text: (§2) The XLSTAT software was used to determine the IC50, TGI and LC50 values using the four-parameter logistic curve equation.

[3] = system: MCF-7 human breast adenocarcinoma cell line; assay: SRB cell proliferation (cytotoxicity) assay, MCF-7
Source text: as §2

[4] = system: A-375 human malignant melanoma; assay: SRB cell proliferation (cytotoxicity) assay, A-375
Source text: as §2

[5] = system: HCT 116 human colorectal carcinoma; assay: SRB cell proliferation (cytotoxicity) assay, HCT 116
Source text: as §2

[6] = system: OVCAR-3 human ovarian adenocarcinoma cell line; assay: SRB cell proliferation (cytotoxicity) assay, OVCAR-3
Source text: as §2

[7] = system: SK-BR-3 human breast adenocarcinoma; assay: SRB cell proliferation (cytotoxicity) assay, SK-BR-3
Source text: as §2

[8] = target: T2, native human galectin-1 (hGal1) (Homo sapiens, UniProt P09382); assay: Thermofluor thermal shift assay (TSA), native galectin-1; type: binding; settings: 5 μM protein
T2 construct: 42; made in house; host or cells: E. coli strain M-15
Experimental: In an attempt to screen among the selected aptamers that better interact with hGal1, differential scanning fluorimetry (Termofluor) was used to characterize their binding to its target. Among all the selected aptamers, SEQ ID NO.: 4 seemed to have a more intense effect on hGal1 thermoshift and so was chosen for further analysis. The selected aptamer had its interaction evaluated with native and alkylated galectin-1. […] The respective thermal displacements were evaluated as a function of an increasing concentration of SEQ ID NO.: 4 (FIG. 1).
Thermofluor experiments were performed on an Mx3005 RT-PCR (Agilent Technologies) using the SYPRO® Orange dye (492/610 nm) (Invitrogen) as fluorescent probe. The purified (native and alkylated) protein samples were incubated for 30 min with increasing concentration of the molecules of interest, centrifuged, and submitted to the thermal denaturation assay, totalizing four distinct experiments. In a 96-well plate (Agilent Technologies) 20 μl of the reaction containing 5 μM of each protein in buffer PBS 1× and 5× SYPRO® Orange were heated from 25° C. to 95° C. at a rate of 1° C./min. The experimental result was processed as in the protocol previously described and the melting temperature was obtained using GraphPad Prism software (www.graphpad.com).

[9] = system: HT-29 human colorectal adenocarcinoma; assay: SRB cell proliferation (cytotoxicity) assay, HT-29
Source text: as §2

[10] = target: T3, alkylated Gal1 (Homo sapiens, UniProt P09382); assay: Hemagglutination inhibition assay, alkylated Gal1; type: cell-based; settings: alkylated Gal1 5 μM
T3 construct: 42; made in house; host or cells: E. coli strain M-15
Experimental: FIG. 15 illustrates the hemagglutination test with constant protein concentration at 5 μM and titration of aptamers SEQ ID NO.: 4 and SEQ ID NO.: 9. (a) Titration with aptamer 4. The hemagglutination of native Gal1 was inhibited from the concentration of 10 μM of this compound.
as §1
It was observed that treating hGal-1 with Iodoacetamide, which covalently binds the acetamide group in all solvent accessible cysteines sulfhydryl side chain, abolishes the anti-hemagglutinating activity of the aptamer. According to the proposed binding mode, this happens because Cysteines 2, 88 and 130 interact directly with the aptamer and adding the acetamide group to their side chains would disrupt specific aptamer-protein interactions (FIG. 13C).

[11] = system: DU-145 human prostate carcinoma cell line; assay: SRB cell proliferation (cytotoxicity) assay, DU-145
Source text: as §2

T1 sequence (P09382 2-135): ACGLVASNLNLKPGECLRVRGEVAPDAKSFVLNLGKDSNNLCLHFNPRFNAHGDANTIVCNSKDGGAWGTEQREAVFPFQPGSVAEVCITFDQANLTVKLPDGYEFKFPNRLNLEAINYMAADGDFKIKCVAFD
T3 sequence (P09382 2-135): as above
T2 sequence (P09382 2-135): as above

B1: AGCTGACACAGCAGGTTGGTGCCCAAAAGAGCCAATCCACGACGACACCCCAAAAACCATATCACGAATACCCGAGTCGAGCAATCTCGAAAT (nucleic acid)
DNA: AGCTGACACAGCAGGTTGGTGCCCAAAAGAGCCAATCCACGACGACACCCCAAAAACCATATCACGAATACCCGAGTCGAGCAATCTCGAAAT
modifications: chemistry not given here
concentration from which hemagglutination was inhibited [1]: 10 µM
inhibitory effect on galectin-induced hemagglutination [1]: better effect
Relative viability (%) of test items ([2]; 0.781 µM): 104.0%
Relative viability (%) of test items ([2]; 1.562 µM): 96.2%
Relative viability (%) of test items ([2]; 3.125 µM): 95.7%
Relative viability (%) of test items ([2]; 6.25 µM): 92.7%
Relative viability (%) of test items ([2]; 12.5 µM): 114.0%
Relative viability (%) of test items ([2]; 25 µM): 84.6%
Relative viability (%) of test items ([2]; 50 µM): 44.6%
Relative viability (%) of test items ([2]; 100 µM): −12.8%
TGI: Concentration for total inhibition of cell growth ([2]; NHF): 83.697 µM
IC50 ([2]; read-out: IC50: Concentration to inhibit 50% of cell growth, NHF): 46.9 µM
Relative viability (%) of test items ([3]; 0.781 µM): 103.8%
Relative viability (%) of test items ([3]; 1.562 µM): 95.5%
Relative viability (%) of test items ([3]; 3.125 µM): 97.8%
Relative viability (%) of test items ([3]; 6.25 µM): 84.8%
Relative viability (%) of test items ([3]; 12.5 µM): 73.6%
Relative viability (%) of test items ([3]; 25 µM): 55.1%
Relative viability (%) of test items ([3]; 50 µM): 37.5%
Relative viability (%) of test items ([3]; 100 µM): −19.5%
TGI: Concentration for total inhibition of cell growth ([3]; MCF-7): 80.767 µM
IC50 ([3]; read-out: IC50: Concentration to inhibit 50% of cell growth, MCF-7): 32 µM
CC50 ([3]; read-out: LC50: Concentration for 50% cell death, MCF-7): > 100 µM
Relative cell viability (%) of test items ([4]; 0.781 µM): 121.2%
Relative cell viability (%) of test items ([4]; 1.562 µM): 107.1%
Relative cell viability (%) of test items ([4]; 3.125 µM): 107.0%
Relative cell viability (%) of test items ([4]; 6.25 µM): 114.0%
Relative cell viability (%) of test items ([4]; 12.5 µM): 97.7%
Relative cell viability (%) of test items ([4]; 25 µM): 92.5%
Relative cell viability (%) of test items ([4]; 50 µM): 70.6%
Relative cell viability (%) of test items ([4]; 100 µM): −19.4%
TGI: Concentration for total inhibition of cell growth ([4]; A-375): 90.397 µM
IC50 ([4]; read-out: IC50: Concentration to inhibit 50% of cell growth, A-375): 61.1 µM
CC50 ([4]; read-out: LC50: Concentration for 50% cell death, A-375): > 100 µM
Relative cell viability (%) of test items ([5]; 0.781 µM): 99.9%
Relative cell viability (%) of test items ([5]; 1.562 µM): 94.6%
Relative cell viability (%) of test items ([5]; 3.125 µM): 87.9%
Relative cell viability (%) of test items ([5]; 6.25 µM): 88.9%
Relative cell viability (%) of test items ([5]; 12.5 µM): 72.2%
Relative cell viability (%) of test items ([5]; 25 µM): 33.3%
Relative cell viability (%) of test items ([5]; 50 µM): 11.5%
Relative cell viability (%) of test items ([5]; 100 µM): −19.5%
TGI: Concentration for total inhibition of cell growth ([5]; HCT 116): 58.519 µM
IC50 ([5]; read-out: IC50: Concentration to inhibit 50% of cell growth, HCT 116): 20.1 µM
Relative viability (%) of test items ([6]; 0.781 µM): 105.9%
Relative viability (%) of test items ([6]; 1.562 µM): 99.6%
Relative viability (%) of test items ([6]; 3.125 µM): 93.9%
Relative viability (%) of test items ([6]; 6.25 µM): 84.3%
Relative viability (%) of test items ([6]; 12.5 µM): 50.2%
Relative viability (%) of test items ([6]; 25 µM): 23.4%
Relative viability (%) of test items ([6]; 50 µM): 8.1%
Relative viability (%) of test items ([6]; 100 µM): −62.0%
TGI: Concentration for total inhibition of cell growth ([6]; OVCAR-3): 45.952 µM
IC50 ([6]; read-out: IC50: Concentration to inhibit 50% of cell growth, OVCAR-3): 16.1 µM
CC50 ([6]; read-out: LC50: Concentration for 50% cell death, OVCAR-3): 91.4 µM
Relative cell viability (%) of test items ([7]; 0.781 µM): 107.5%
Relative cell viability (%) of test items ([7]; 1.562 µM): 99.9%
Relative cell viability (%) of test items ([7]; 3.125 µM): 111.1%
Relative cell viability (%) of test items ([7]; 6.25 µM): 109.1%
Relative cell viability (%) of test items ([7]; 12.5 µM): 98.5%
Relative cell viability (%) of test items ([7]; 25 µM): 48.7%
Relative cell viability (%) of test items ([7]; 50 µM): 3.1%
Relative cell viability (%) of test items ([7]; 100 µM): −70.0%
TGI: Concentration for total inhibition of cell growth ([7]; SK-BR-3): 49.017 µM
IC50 ([7]; read-out: IC50: Concentration to inhibit 50% of cell growth, SK-BR-3): 28.3 µM
CC50 ([7]; read-out: LC50: Concentration for 50% cell death, SK-BR-3): 80.7 µM
variation of denaturation temperature (Tm) of native hGal1 [8]: greater variation
Relative cell viability (%) of test items ([9]; 0.781 µM): 92.0%
Relative cell viability (%) of test items ([9]; 1.562 µM): 95.9%
Relative cell viability (%) of test items ([9]; 3.125 µM): 97.2%
Relative cell viability (%) of test items ([9]; 6.25 µM): 92.5%
Relative cell viability (%) of test items ([9]; 12.5 µM): 83.1%
Relative cell viability (%) of test items ([9]; 25 µM): 32.7%
Relative cell viability (%) of test items ([9]; 50 µM): 14.4%
Relative cell viability (%) of test items ([9]; 100 µM): 0.2%
IC50 ([9]; read-out: IC50: Concentration to inhibit 50% of cell growth, HT-29): 20.4 µM
effect on hemagglutination by alkylated Gal1 [10]: no effect
Relative viability (%) of test items ([11]; 0.781 µM): 106.1%
Relative viability (%) of test items ([11]; 1.562 µM): 92.3%
Relative viability (%) of test items ([11]; 3.125 µM): 106.4%
Relative viability (%) of test items ([11]; 6.25 µM): 103.6%
Relative viability (%) of test items ([11]; 12.5 µM): 98.7%
Relative viability (%) of test items ([11]; 25 µM): 82.5%
Relative viability (%) of test items ([11]; 50 µM): 68.0%
Relative viability (%) of test items ([11]; 100 µM): 36.6%
TGI: Concentration for total inhibition of cell growth ([11]; DU-145): >100 µM
IC50 ([11]; read-out: IC50: Concentration to inhibit 50% of cell growth, DU-145): 74 µM
